B1: E7 peptide (peptide)
peptide: EFEFEFEFEFEFE
notes: designed amphiphilic peptide, E6 with one more glutamic acid at the N-terminus; In the coassemblies it stood as pre-formed, sonicated self-assembled fibres; also called E7 fibers; E7 self-assembled fibers
B2: 6-repeat peptide (FE)6, E6 (peptide)
peptide: FEFEFEFEFEFE
notes: designed amphiphilic peptide, six repeats of the dipeptide Phe-Glu; Forms supramolecular fibres; also called (FE)n with n = 6
B3: E9 peptide (peptide)
peptide: EEFEFEFEFEFEFEE
notes: designed amphiphilic peptide, E6 with additional glutamic acids at both termini

Target: the molecule itself
Assay: AFM + other: TEM; peptides in water at pH ≈ 5, sonicated 10 min, annealed at 80° for 30 min; AFM on mica at 1 mM, dry tapping mode; TEM at 10 μM, negative staining with uranyl acetate

Row | Protein | binding result
1 | B1 | binds
2 | B2 | binds
3 | B3 | binds

From PMC12060649, “Tuning the Dimensionality of Protein–Peptide Coassemblies to Build 2D Conductive Nanomaterials” (ACS Nano, 2025)
